Measured values reported in the supplement of paper PMC9732359.
± gives the uncertainty stated by the source.

Assay: protein stability index of a GFP-peptide fusion (yeast GPS) (PSI 1-4); higher = more stable; sorted into four equal gates, so the index is relative within each strain
Method in brief: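 Peptides tiling yeast proteins in 17-residue segments were fused downstream of GFP, with Cherry expressed from the same plasmid. As a pooled library in yeast, mid-log cultures grown in leucine-free medium were sorted into four equal gates by GFP/Cherry fluorescence ratio. Gate plasmids were PCR-amplified and Illumina-sequenced, and barcodes linked reads to strains. Each peptide received a protein stability index equal to the sum of each gate's read frequency times its gate number.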

Row | Sequence | protein stability index (doa10∆) | protein stability index (pdr5∆) | protein stability index (san1∆) | protein stability index (ubr1∆)
1 | PVTSIPSTNKKLSISNA [GAL11] | 2.29 ± 0.061 | 2.67 ± 0.056 | 2.53 ± 0.058 | 2.8 ± 0.058
2 | QEFDSELSKEEKERLES [SMC3] | 2.97 ± 0.12 | 2.96 ± 0.16 | 2.98 ± 0.058 | 3.06 ± 0.081
3 | NNLSSMNLDFDIEEGPI [MCD1] | 2.91 ± 0.046 | 3.15 ± 0.042 | 3.21 ± 0.037 | 3.19 ± 0.032
4 | AQQLRNQQQQQQQQQQQ [GAL11] | 2.98 ± 0.095 | 2.92 ± 0.11 | 2.92 ± 0.094 | 3.04 ± 0.065
5 | TSSTPSPIKNGSCTRQL [YOR098C/NUP1] | 3.26 ± 0.064 | 3.02 ± 0.045 | 2.68 ± 0.046 | 3.09 ± 0.049
6 | SYKMIQLDAYGEKKVGS [SWP82] | 3.27 ± 0.093 | 3.37 ± 0.093 | 3.35 ± 0.075 | 3.02 ± 0.072
7 | TFSSSISTYISTDELVG [POP8] | 3.02 ± 0.087 | 2.93 ± 0.057 | 2.9 ± 0.072 | 3.02 ± 0.069
8 | LSETNGLHKFVKGDLLQ [PRE10] |  | 3.28 ± 0.23 |  | 3.48 ± 0.11
9 | DVSIEELLREWLETYSE [IRR1] | 3.38 ± 0.056 | 3.34 ± 0.075 | 3.56 ± 0.067 | 3.33 ± 0.047
10 | NPLKNKQVLLRLNPYAK [RPL4A] | 1.34 ± 0.17 | 1.21 ± 0.11 | 1.15 ± 0.15 | 1.13 ± 0.18
11 | GLDATKLYVSHIQVNQA [RPL17A] | 2.5 ± 0.096 | 2.99 ± 0.063 | 3 ± 0.043 | 3.05 ± 0.05
12 | ILFELYKIKGRNNSKSV [SRP72] | 2.04 ± 0.068 | 1.92 ± 0.061 | 2.75 ± 0.069 | 1.76 ± 0.062
13 | KDWELEARFWHLVELLL [YDL116W/NUP84] | 2.26 ± 0.1 | 2.15 ± 0.086 | 1.92 ± 0.15 | 2.28 ± 0.062
14 | EVYKAEKDAVSVFGFRT [RPS24A] | 3.24 ± 0.15 | 3.12 ± 0.086 | 3.36 ± 0.07 | 3.31 ± 0.13
15 | VNEENDSYIALYEKDIV [RET1] | 2.6 ± 0.064 | 2.56 ± 0.076 | 2.69 ± 0.061 | 2.68 ± 0.07
16 | ITGEKLDTQLNDLRVSL [SMC1] | 1.3 ± 0.068 | 2 ± 0.076 | 1.58 ± 0.18 | 1.16 ± 0.032
17 | TGLSQIPNRRFTLWWSP [PRP8] | 3.04 ± 0.058 | 2.78 ± 0.056 | 1.87 ± 0.048 | 2.52 ± 0.042
18 | PKPLKFLRPTYPDLCSI [RPN1] | 2.61 ± 0.07 | 2.69 ± 0.067 | 2.4 ± 0.06 | 2.5 ± 0.042
19 | MSPNHGTFGGDGMYSES [FAS2] | 1.87 ± 0.075 | 2.34 ± 0.064 | 2.8 ± 0.14 | 2.43 ± 0.064
20 | KPTREPTPSVKTEPVGT [RPC53] | 3.15 ± 0.22 | 3.06 ± 0.26 | 2.95 ± 0.19 | 3.02 ± 0.21
21 | VRATFRNNLPAKTFGAS [RPL33A] | 2.85 ± 0.097 | 3.05 ± 0.16 | 3.2 ± 0.11 | 3.31 ± 0.098
22 | FNYSGKDMLYSGITGEC [RET1] | 2.48 ± 0.075 | 2.46 ± 0.075 | 2.19 ± 0.12 | 2.61 ± 0.06
23 | ILRQRGPGFKFVDLNEK [SRB4] | 2.57 ± 0.11 | 1.64 ± 0.076 | 1.44 ± 0.21 | 1.75 ± 0.079
24 | DPYELKGEVVLVNIRTQ [ITC1] | 1.57 ± 0.098 | 2.66 ± 0.14 | 2.45 ± 0.11 | 2.3 ± 0.099
25 | PCNNRGKHSIGLIWYLL [RPS0A] | 2.56 ± 0.058 | 2.37 ± 0.054 | 2.49 ± 0.058 | 2.37 ± 0.044
26 | TDDVRLAPELNQAIWKR [RPL31A] | 3.28 ± 0.1 | 3.3 ± 0.077 | 3.18 ± 0.079 | 3.12 ± 0.048

Row | Sequence | protein stability index (doa10∆) | protein stability index (pdr5∆) | protein stability index (san1∆) | protein stability index (ubr1∆)
27 | TDLEKKHLWDQKSLAAL [RPC17] | 2.86 ± 0.11 | 2.98 ± 0.062 | 2.94 ± 0.081 | 3.02 ± 0.059
28 | TSRIDEEKPGLIITRKA [SMC4] | 2.91 ± 0.063 | 3.07 ± 0.052 | 3.07 ± 0.044 | 3 ± 0.057
29 | TKSPAYPMMHQVRNQVF [RGR1] | 1.78 ± 0.047 | 1.88 ± 0.054 | 1.8 ± 0.077 | 2.23 ± 0.047
30 | VPKSIAKTLTYPEVVTP [RPO21] | 2.51 ± 0.05 | 2.76 ± 0.044 | 2.39 ± 0.039 | 2.62 ± 0.047
31 | YFAKLREYLEEYKSLFV [RPP0] | 2.46 ± 0.19 | 2.65 ± 0.15 | 2.98 ± 0.073 | 3.24 ± 0.095
32 | NEVSLAIKKSSMKMELL [SMC2] | 2.69 ± 0.071 | 2.49 ± 0.082 | 3.34 ± 0.12 | 2.21 ± 0.075
33 | FEPSISRSNFQGKHTKF [LRP1] | 3.2 ± 0.1 | 3.26 ± 0.15 | 2.97 ± 0.14 | 3.28 ± 0.094
34 | NNDDNGNNNNNNSGNDN [MED2] | 2.93 ± 0.043 | 2.99 ± 0.04 | 3.01 ± 0.034 | 3.05 ± 0.041
35 | GPKSGSTMGTPTVHNST [PGD1] | 3.05 ± 0.078 | 3.04 ± 0.055 | 3.01 ± 0.061 | 3.12 ± 0.06
36 | DLTLDDISLKADLERFF [YJL039C/NUP192] | 3.29 ± 0.053 | 3.35 ± 0.076 | 3.41 ± 0.036 | 3.23 ± 0.039
37 | DKSIDTSSLQLYKFQNF [YML103C/NUP188] | 2.67 ± 0.064 | 3.05 ± 0.086 | 2.7 ± 0.055 | 2.99 ± 0.055
38 | QQQVLNKLRQQAIAKNN [SNF5] | 1.13 ± 0.066 | 1.2 ± 0.072 | 1.11 ± 0.13 | 1.05 ± 0.052
39 | QINQGVPSAKPLILTPP [SNF11] | 2.75 ± 0.055 | 2.3 ± 0.052 | 2.8 ± 0.058 | 2.02 ± 0.032
40 | SKKDFKIIDNPKSFLKK [YMR129W/POM152] | 3.05 ± 0.082 | 3.35 ± 0.095 | 3.08 ± 0.07 | 3.17 ± 0.092
41 | SLYAYCHSKLRGQQVEN [GRR1] | 2.51 ± 0.1 | 2.52 ± 0.092 | 2.54 ± 0.1 | 2.6 ± 0.097
42 | KKRAPRAVKEIKKFAKL [RPL31A] |  | 3.15 ± 0.21 | 2.86 ± 0.16 | 
43 | KLHMGTDDVRLAPELNQ [RPL31A] | 3.11 ± 0.12 | 3.25 ± 0.083 | 3.13 ± 0.083 | 3.09 ± 0.052
44 | LQKKFVTKQSELNSSED [SMC1] |  | 3.52 ± 0.26 |  | 
45 | IDEVDSIATKRFDAQTG [RPT3] | 3.12 ± 0.12 | 3.18 ± 0.076 | 2.93 ± 0.075 | 3.38 ± 0.1
46 | LEDKLRAVLTPLITRHC [RRP46] | 2.53 ± 0.059 | 2.2 ± 0.05 | 2.33 ± 0.064 | 2.44 ± 0.035
47 | SETADETLENNIVSVLT [RPN11] | 2.73 ± 0.11 | 2.94 ± 0.076 | 2.75 ± 0.11 | 2.78 ± 0.097
48 | GYYLSLGSGSLAAMAVL [PUP1] |  | 1.98 ± 0.29 |  | 
49 | SKNPLSLTEATKTNVDN [YLR335W/NUP2] | 3.01 ± 0.065 | 3.01 ± 0.069 | 3.28 ± 0.11 | 3.31 ± 0.092
50 | DQNNATMGEETAKKDMS [SNF12] | 3.44 ± 0.082 | 3.34 ± 0.11 | 3.21 ± 0.12 | 3.32 ± 0.09
51 | SFTPSTVPNINFSGLNG [YOR098C/NUP1] | 2.59 ± 0.066 | 2.68 ± 0.068 | 2.83 ± 0.056 | 2.97 ± 0.05
52 | VKKQKSARGIETRPAQV [FAS2] | 2.77 ± 0.1 | 3 ± 0.094 | 3.1 ± 0.083 | 3.09 ± 0.082
